From patent publication US20220235103A1 (Molecular Partners, published 2022)

B1: vS07_19G10 (designed binder)
chain: MRGSHHHHHHGSDLGNKLLDAAWVGQDDEVRILLAAGADVNAKDWQGETPLHLAATKGHLEIVEVLLKAGADVNAKDVVGYTPLHVAASQGHLEIVEVLLKAGADVNAQDVHGYTPADLAAQAGHEDIAEVLQKAA
notes: also called R2a
B2: ALE038 (designed binder)
chain: MRGSHHHHHHGSDLGKKLLEAARAGQDDEVRELLKAGADVNAKDYFSHTPLHLAARNGHLKIVEVLLKAGADVNAKDFAGKTPLHLAANEGHLEIVEVLLKAGADVNAQDIFGKTPADIAADAGHEDIAEVLQKAAGSPTPTPTTPTPTPTTPTPTPTGSDLGKKLLEAARAGQDDEVRELLKAGADVNAKDYFSHTPLHLAARNGHLKIVEVLLKAGADVNAKDFAGKTPLHLAANEGHLEIVEVLLKAGADVNAQDIFGKTPADIAADAGHEDIAEVLQKAAGSPTPTPTTPTPTPTTPTPTPTGSDLGKKLLQAARAGQLDEVRELLKAGADVNAKDREGKTPLHVAAQEGHLEIVEVLLKAGADVNAKDVWGRTPLHLAAWIGHLEIVEVLLKAGADVNAKDVSGATPLHAAALHGHLEIVEVLLNAGADVNAQDKSGKTPADLAARAGHQDIAEVLQKAAGSPTPTPTTPTPTPTTPTPTPTGSDLGKKLLQAARAGQLDEVRELLKAGADVNAKDREGITPLHLAAQHGHLEIVEVLLKAGADVNAKDVWGRTPLHLAAWQGHLEIVEVLLKAGADVNAKDLAGATPLHVAALYGHLEIVEVLLKAGADVNAQDKSGKTPADLAARAGHQDIAEVLQKAAGSPTPTPTTPTPTPTTPTPTPTGSDLGHKLLLAAQAGQDDEVRILLAAGADVNAKDVFGQTPLHVAAVAGHLEIVEVLLKAGADVNAKDSIGYTPLHHAARVGHLEIVEVLLKAGADVNAQDWIGITPADLAAFEGHEDIAEVLQKAA
B3: ALE030 (designed binder)
chain: MRGSHHHHHHGSDLGKKLLEAARAGQDDEVRELLKAGADVNAKDYFSHTPLHLAARNGHLKIVEVLLKAGADVNAKDFAGKTPLHLAANEGHLEIVEVLLKAGADVNAQDIFGKTPADIAADAGHEDIAEVLQKAAGSPTPTPTTPTPTPTTPTPTPTGSDLGKKLLEAARAGQDDEVRELLKAGADVNAKDYFSHTPLHLAARNGHLKIVEVLLKAGADVNAKDFAGKTPLHLAANEGHLEIVEVLLKAGADVNAQDIFGKTPADIAADAGHEDIAEVLQKAAGSPTPTPTTPTPTPTTPTPTPTGSDLGKKLLQAARAGQLDEVRELLKAGADVNAKDREGITPLHLAAQHGHLEIVEVLLKAGADVNAKDVWGRTPLHLAAWQGHLEIVEVLLKAGADVNAKDLAGATPLHVAALYGHLEIVEVLLKAGADVNAQDKSGKTPADLAARAGHQDIAEVLQKAAGSPTPTPTTPTPTPTTPTPTPTGSDLGNKLLDAAWVGQDDEVRILLAAGADVNAKDWQGETPLHLAATKGHLEIVEVLLKAGADVNAKDVVGYTPLHVAASQGHLEIVEVLLKAGADVNAQDVHGYTPADLAAQAGHEDIAEVLQKAAGSPTPTPTTPTPTPTTPTPTPTGSDLGKKLLQAARAGQLDEVRELLKAGADVNAKDREGKTPLHVAAQEGHLEIVEVLLKAGADVNAKDVWGRTPLHLAAWIGHLEIVEVLLKAGADVNAKDVSGATPLHAAALHGHLEIVEVLLNAGADVNAQDKSGKTPADLAARAGHQDIAEVLQKAA
B4: ALE033 (designed binder)
chain: MRGSHHHHHHGSDLGKKLLEAARAGQDDEVRELLKAGADVNAKDYFSHTPLHLAARNGHLKIVEVLLKAGADVNAKDFAGKTPLHLAANEGHLEIVEVLLKAGADVNAQDIFGKTPADIAADAGHEDIAEVLQKAAGSPTPTPTTPTPTPTTPTPTPTGSDLGKKLLEAARAGQDDEVRELLKAGADVNAKDYFSHTPLHLAARNGHLKIVEVLLKAGADVNAKDFAGKTPLHLAANEGHLEIVEVLLKAGADVNAQDIFGKTPADIAADAGHEDIAEVLQKAAGSPTPTPTTPTPTPTTPTPTPTGSDLGKKLLQAARAGQLDEVRELLKAGADVNAKDREGITPLHLAAQHGHLEIVEVLLKAGADVNAKDVWGRTPLHLAAWQGHLEIVEVLLKAGADVNAKDLAGATPLHVAALYGHLEIVEVLLKAGADVNAQDKSGKTPADLAARAGHQDIAEVLQKAAGSPTPTPTTPTPTPTTPTPTPTGSDLGKKLLQAARAGQLDEVRELLKAGADVNAKDREGKTPLHVAAQEGHLEIVEVLLKAGADVNAKDVWGRTPLHLAAWIGHLEIVEVLLKAGADVNAKDVSGATPLHAAALHGHLEIVEVLLNAGADVNAQDKSGKTPADLAARAGHQDIAEVLQKAAGSPTPTPTTPTPTPTTPTPTPTGSDLGKKLLQAARAGQLDEVRELLKAGADVNAKDREGITPLHLAAQHGHLEIVEVLLKAGADVNAKDVWGRTPLHLAAWQGHLEIVEVLLKAGADVNAKDLAGATPLHVAALYGHLEIVEVLLKAGADVNAQDKSGKTPADLAARAGHQDIAEVLQKAA
B5: vS07_14G03 (designed binder)
chain: MRGSHHHHHHGSDLGQKLLHAAQYGQDDEVRILLAAGADVNAKDKQGNTPLHIAAFHGHLEIVEVLLKAGADVNAKDQWGLTPLHLAAAWGHLEIVEVLLKAGADVNAQDNYGQTPADLAAESGHEDIAEVLQKAA
notes: also called S2a

What was measured:
Assay in all cases: cell-based or functional assay
[1] = target: spike protein of live SARS-CoV-2 (2019-nCoV/IDF0372/2020) (SARS-CoV-2, UniProt P0DTC2 14-1273)
[2] = target: T1, SARS-CoV-2 spike protein, wild type (Wuhan) (SARS-CoV-2, UniProt P0DTC2 14-1273)
[3] = target: T1, SARS-CoV-2 spike protein, wild type …; remark: listed apart in the source

Binder	IC50, SARS-CoV-2 VSV pseudovirus neutralization (luciferase) [2]	other results
B1	–	protection of Vero E6 cells from SARS-CoV-2 cytopathic effect [1]: 100 nM
B2	0.264 nM	–
B3	0.119 nM	–
B4	0.125 nM	–
B5	–	VSV-SARS-CoV-2 IC50 [3]: < 100 nM
